{"source": "paper PMC2975797", "origin": "cited, not measured here", "biological_target": "von Willebrand factor (Homo sapiens) (UniProt P04275)", "data": [{"substance": "Factor VIII (from UniProt P00451)", "values": [{"measurement": "Kd", "value": "< 0.5", "unit": "nM"}]}]}
